# Assay results: the RNAGym collection of RNA variant scans (doi:10.1073/pnas.2313332121)
# B1: TPR t1 (parent)
# chain: GACCAAUCUGCCCUCAGAGCUCGAGAACAUCUUCGGAUGCAGAGGAGGCAGGCUUCGGUGGCGCGAUAGCGCCAACGUCCUCAACCUCCAAUGCAUCCCACCACAUGAUGAUGCCUGAAGAGCCUUGGUUUUUUG
# Variants of: B1
# Assay: polymerase ribozyme fitness, log enrichment relative to wild type (log ratio); higher = more active; in vitro selection for triplet polymerase activity
# Procedure, shortened: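 Streptavidin-bead capture of gel-excised extended constructs, followed by RT-PCR, closed a single triplicate in vitro selection round. That round began by annealing PCR-built, transcribed mutant libraries of each subunit of a heterodimeric triplet polymerase ribozyme with a biotinylated primer, the partner subunit and triplets, then incubating them frozen at −7 °C. After Illumina sequencing of inputs and outputs, genotypes needed ≥10 input reads and ≥1 read per output. Fitness is the base-2 logarithm of genotype enrichment over wild-type enrichment, using inverse-variance-weighted replicate averages.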
row,Variant,polymerase ribozyme fitness (log ratio)
1,GACCAAUCUGCCCUCAGAGCUCGAGAACAUCUUCGGAUGCAGAGGAGUCAGGCUUCGGUGGCGCGAUAGCGCCAACGUCCUCAACCUCCAAAGCAUCCCACCACAUGAUGAUGCCUGAAGAGCCUUGGUUUUUUG,-3.38
2,GACCAAUCUGCCCUCAGAGCUCGAGAACAUCUUCGGAUGCAGAGGAGUCAGGCUUCGGUGGCGCGAUAGCGCCAACGUCCUCAACCUCCAAUGCAUCCCACCACAUGAUGAUACCUGAAGAGCCUUGGUUUUUUG,-1.18
3,GACCAAUCUGCCCUCAGAGCUCGAGAACAUCUUCGGAUGCAGAGGAGUCAGGCUGCGGUGUCGCGAUAGCGCCAACGUCCUCAACCUCCAAUGCAUCCCACCACAUGAUGAUGCCUGAAGAGCCUUGGUUUUUUG,-0.0419
4,GACCAAUCUGCCCUCAGAGCUCGAGAACAUCUUCGGAUGCAGAGGAGUCAGGCUUCGGUGGCGCGAUAGCGCCAACGUCCUCAACCUCCAAUGCAUCCCACCACAUUAUGCUGCCUGAAGAGACUUGGUUUUUUG,-5.41
5,GACCAAUCUGCCCUCAGAGCUCGAGAACAUCUUCGGAUGCAGAGGAGUCAGGCUUCGGUGGCGCGAUAGCGCCAACGUCCUCAACCUCCAAUGCAUCCUACCACAUGAUGAUGCCUGAAGAGCCUUGGUUUUUUG,-3.34
6,GACCAAUCUGCCCUCAGAGCUCGAGAACAUCUUCGGAUGCAGAGGAGUCAGGCUUCGGUGGCGCGAUAGCGCCAACGUCCUCAACCUCCAACGCAUCCCACCACAUGAUGAUGCCUGAAAAGCCUUCGUUUUUGG,-1.91
7,GACCAAUCUGCCCUCAGAGCUCGAGAACAUCUUCGGAUGCAGAGGAGUCAGGCUUCGGUGGCGCGAUAGCGCCAACGUCCUCAACCUCCAAUACAUCCCACCACAUGAUGAUGCCUGAAGAGCCUUGGUUUUUUG,-0.946
8,GACCAAUCUGCCCUCAGAGCUCGAGAACAUCUUCGGAUGCAGAGGAGUCAGGCUUCGUUUGCGCGAUAGCGCCAACGUCCUGAACCUCCAAUGCAUCCCACCACAUGAUGAUGCCUGAAGAGCCUUGGUUUUUUG,0.276
9,GACCAAUCUGCCCUCAGAGCUCGAGAACAUCUUCGGAUGCAGAGGAGUCAGGCUUCGGUGGCGCGAUAGCGCCAACGUCCUCAACCUCCAAUGCAUCCCACCACAUGAUGAUGCCUCAAGAGCCUUGGUUUUUUG,-4.06
10,GACCAAUCUGCCCUCAGAGCUCGAGAACAUCUUCGGAUGCAGAGGAGUCAGGCUUCGGAGGCGCGAUAGCGCCAACGUCCUCAACCUCCAAUGCAUCCCACCACAUGAUGAUGCCCGAAGAGCUUUGGUUUUUUG,-0.336
11,GACCAAUCUGCCCUCAGAGCUCGAGAACAUCUUCGGAUGCAGAGGAGUCAGGCUUCCGUGGCGCGAUAGCGCCAACGUCCUCAACCUCCAAUGCAACCCACCACAUGAUGAUGCCUGAAGAGCCUUGGUUUUUUG,-1.49
12,GACCAAUCUGCCCUCAGAGCUCGAGAACAUCUUCGGAUGCAGAGGAGUCAGGCUUCGGUGGCGCGAUAGCGCCAACGUCCUCAACCUCCAAUGCAUCCCACCACAUGAUGAUGCCUGAAGAGACUAGGUUUUUUG,-2.05
13,GACCAAUCUGCCCUCAGAGCUCGAGAACAUCUUCGGAUGCAGAGGAGUCAGGCCUCGGUGGCGCGAUAGCUCCAACGUCCUCAACCUCCAAUGCAUCCCACCACAUGAUGAUGCCCGAAGAUCCUUGGUUUUUUG,-2.51
14,GACCAAUCUGCCCUCAGAGCUCGAGAACAUCUUCGGAUGCAGAGGAGUCAGGCCUCGGUGGCGCGAUAGCGCCAACGUCCUCAACCUCCAAUGCAUCCCAUCACAUGAUGAUGCCUGAAGAGCCUUGGUGUUUUG,-1.13
15,GACCAAUCUGCCCUCAGAGCUCGAGAACAUCUUCGGAUGCAGAGGAGUCAGGCUUCGGUGGCGCGAUAGCGCCAACGUCCUCAACCUCCAAUGCAUCCCACCACAUGAUGAUGCCUGAAUAGCCUUGGUUUUUUG,-0.428
16,GACCAAUCUGCCCUCAGAGCUCGAGAACAUCUUCGGAUGCAGAGGAGUCAGGCGUCGCUGGCGCGAUAGCGCCAACGUCCUCAACCUCCAAUGCAUCCCACCACAUGAUGAUGCCUGAAGAGCCUUGGAUUUUUG,-2.45
17,GACCAAUCUGCCCUCAGAGCUCGAGAACAUCUUCGGAUGCAGAGGAGUCAGGCUUCGGUGGCGCGAUAACGCCAACGUCCUCAACCUCCAAUGCAUCCCACCACAUGAUGAUGCCUGAAGAGCCUUGGUUUUUUU,-5.98
18,GACCAAUCUGCCCUCAGAGCUCGAGAACAUCUUCGGAUGCAGAGGAGUCAGGCUUCGGUGGCGCGAUAGCGCCAACGUCCUCAACCUCCAAUGCAUCCCACCACAUGAUUAUGCCUGAAGAGCCUUGGUUUUUUG,-2.84
19,GACCAAUCUGCCCUCAGAGCUCGAGAACAUCUUCGGAUGCAGAGGAGUCAGGCUUCGGUGGCUCGAUAGCGUCAACGUCCUCAACAUCCACUGCAUCCCACCACAUGAUGAUGCCUGAAGAGCCUUGGUUUUUUG,-5.91
20,GACCAAUCUGCCCUCAGAGCUCGAGAACAUCUUCGGAUGCAGAGGAGUCAGGCUUCGGUGGCGCGAUAGCGCCAACGUCCUCAACCGCCAAUGCAUCCCACCACAUGAUGAUGCGUGAAGAGCCUUGGUUUUUUG,-0.14
21,GACCAAUCUGCCCUCAGAGCUCGAGAACAUCUUCGGAUGCAGAGGAGUCAGGCUUCGGUGGCGCGAUAUCGCCAACGUCCUCAACCUCCAAUGCAUCCCACCACAUGAUGAUGCCUGAAGAGCCUUGGUUUUUUA,-1.62
